Measurements from the supplement of paper PMC9732359.
± gives the uncertainty stated by the source.

Assay: protein stability index of a GFP-peptide fusion (yeast GPS) (PSI 1-4); higher = more stable; sorted into four equal gates, so the index is relative within each strain
Summary of the method: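 Each library plasmid carries Cherry plus GFP with a tiled 17-residue yeast protein peptide fused downstream, and the pooled library was carried in yeast. Mid-log cultures in leucine-free medium were sorted into four equal gates by GFP/Cherry ratio. Reads from Illumina sequencing of PCR-amplified plasmids from each gate were assigned to strains by barcodes. Per peptide, the protein stability index was computed as the summed products of gate read frequency and gate number.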

Sequence	protein stability index (doa10∆)	protein stability index (pdr5∆)	protein stability index (san1∆)	protein stability index (ubr1∆)
ASGLLRAYLSHSNRCIV [CSN12]	1.85 ± 0.04	1.56 ± 0.04	1.7 ± 0.063	1.25 ± 0.027
ASLTAARTAANSIYCPT [RPN6]	2.53 ± 0.19	2.66 ± 0.1	2.84 ± 0.093	2.49 ± 0.045
ASNGRNKKGRGHVKPVR [RPS26A]	3.46 ± 0.075	3.35 ± 0.086	3.45 ± 0.082	3.3 ± 0.056
ASVYPEYALPKTYNKLH [RPS26A]	2.92 ± 0.076	2.51 ± 0.053	2.79 ± 0.059	2.71 ± 0.031
ATAAESDVAKQLAALGY [RPL16A]	2.98 ± 0.042	2.91 ± 0.056	3.18 ± 0.045	3.2 ± 0.048
ATDLAGPANNPNEFMQF [PRP8]	3.21 ± 0.063	3.35 ± 0.059	3.23 ± 0.033	3.4 ± 0.05
ATDPVAAKPDNLANFSN [SWP82]	3.27 ± 0.077	3.18 ± 0.084	3.21 ± 0.051	3.26 ± 0.057
ATEPQMVLFNIYDDWLD [PRP8]	2.28 ± 0.051	2.15 ± 0.047	1.6 ± 0.09	2.18 ± 0.044
ATFLKLAAPQLVQMYIG [RPT5]	1.31 ± 0.25	–	1.2 ± 0.21	1.44 ± 0.23
ATGISGSVSEETELFEP [ECM29]	3.22 ± 0.083	3.16 ± 0.054	3 ± 0.08	3.04 ± 0.067
ATLPYIKQDIPIVIIFR [RPB2]	1.5 ± 0.063	1.2 ± 0.049	1.19 ± 0.12	1.14 ± 0.041
ATMSVFLQRIDFQIDGN [RRI2]	2.92 ± 0.081	2.99 ± 0.066	2.95 ± 0.059	3.29 ± 0.058
ATQVKTDNTVDKFDFYK [RPT3]	3.29 ± 0.12	2.98 ± 0.11	3.26 ± 0.095	3.09 ± 0.099
ATSQYLKQDLKKISSFK [YGL172W/NUP49]	2.9 ± 0.064	2.56 ± 0.064	3.04 ± 0.051	3.06 ± 0.042
ATVPSAPYRKQIISNAH [YAR002W/NUP60]	2.34 ± 0.062	2.41 ± 0.069	1.88 ± 0.093	2.37 ± 0.06
ATVVSTNHSAAASTPTT [PGD1]	2.91 ± 0.047	3.12 ± 0.042	2.98 ± 0.035	3 ± 0.037
AVDNCAICRNHIMEPCI [HRT1]	2.12 ± 0.071	2.79 ± 0.09	2.02 ± 0.086	2.2 ± 0.07
AVFYTPKELGGLGMISA [PRP8]	3.43 ± 0.13	2.33 ± 0.13	2.4 ± 0.1	2.29 ± 0.24
AVIESVVNQPTGKIVDV [FAS1]	2.49 ± 0.097	2.57 ± 0.14	2.52 ± 0.089	2.39 ± 0.08
AVKTAETGYMSRRLMKS [RPO31]	2.33 ± 0.13	–	2.52 ± 0.25	–
AVLSYYKVDAEGKVTKL [RPS31]	2.98 ± 0.11	2.99 ± 0.13	3.03 ± 0.083	3.27 ± 0.065
AVNSIMALKFVSIKFTN [ECM29]	–	3.12 ± 0.11	2.87 ± 0.13	3.13 ± 0.22
AVNWQDKQGWTPLFHAL [NAS6]	2.07 ± 0.16	2.1 ± 0.18	2.4 ± 0.092	–
AVPAATPANTNNSTSNA [SWI1]	2.52 ± 0.06	2.99 ± 0.053	2.65 ± 0.053	2.96 ± 0.04
AVSEKAGHQTSAESWGT [RPL4A]	2.24 ± 0.086	2.03 ± 0.1	1.71 ± 0.11	1.86 ± 0.088
AWGALITTFVKRSTVPL [YML103C/NUP188]	2.46 ± 0.07	2.88 ± 0.072	2.49 ± 0.076	2.33 ± 0.12

Sequence	protein stability index (doa10∆)	protein stability index (pdr5∆)	protein stability index (san1∆)	protein stability index (ubr1∆)
AYELRTKSKEQLASQLV [RPL35A]	3.02 ± 0.11	3.29 ± 0.091	2.93 ± 0.067	3.15 ± 0.13
AYSSRFQTPFRRRREGK [RPL5]	2.9 ± 0.078	2.75 ± 0.068	2.58 ± 0.082	3.04 ± 0.064
CAACHSLDRVAWRTLVG [CYT1]	1.29 ± 0.052	1.32 ± 0.047	1.34 ± 0.1	1.26 ± 0.042
CAFLLTKIKDAEEDSLL [YJL039C/NUP192]	3.22 ± 0.11	3.4 ± 0.071	3.08 ± 0.11	3.35 ± 0.1
CAMSGLTADARSMIEHA [PUP2]	2.3 ± 0.13	2.94 ± 0.18	–	2.64 ± 0.12
CEINYYEILLKILITYG [SRB8]	1.2 ± 0.047	1.54 ± 0.065	1.17 ± 0.1	1.2 ± 0.076
CFCEDHCDKCSVVLTLQ [RPB3]	3.12 ± 0.14	3.15 ± 0.14	2.42 ± 0.19	2.51 ± 0.17
CFPQYVNSKQGAINVAN [NNF1]	2.43 ± 0.29	–	–	3.02 ± 0.16
CIFNFLQQQTPVTIWLF [SME1]	1.18 ± 0.069	1.47 ± 0.066	1.25 ± 0.084	1.15 ± 0.052
CIKKIMENNEPAMAMED [SRB8]	3.12 ± 0.072	3.15 ± 0.079	3.13 ± 0.059	3.08 ± 0.069
CILYDADESKMAKLNEC [RET1]	2.28 ± 0.062	1.99 ± 0.06	2.32 ± 0.1	1.76 ± 0.055
CISLSGVPNYLVQLEPH [SSN2]	1.85 ± 0.062	2.09 ± 0.08	2.29 ± 0.083	2.2 ± 0.065
CLDQMTEQFCATLNYID [SRB7]	2.39 ± 0.043	2.87 ± 0.047	2.99 ± 0.049	2.65 ± 0.039
CLENARSQISEKDAKIN [SIR4]	3.09 ± 0.078	3.23 ± 0.081	3.13 ± 0.066	2.98 ± 0.064
CLSDYTKKISNFNSSLH [YJL039C/NUP192]	1.56 ± 0.061	2.04 ± 0.057	1.72 ± 0.083	1.25 ± 0.036
CPEEFAESMCQELELPG [SNF5]	3.25 ± 0.073	3 ± 0.074	2.71 ± 0.07	3.03 ± 0.075
CRKCYARLPPRATNCRK [RPL40A]	3.09 ± 0.23	3.71 ± 0.28	3.13 ± 0.14	2.92 ± 0.13
CRNDAVNWLAYTYLYVR [BRR2]	3.25 ± 0.063	3.54 ± 0.046	3.18 ± 0.046	3.21 ± 0.043
CRVCSSHTGLIRKYGLN [RPS29A]	1.5 ± 0.13	1.53 ± 0.1	1.48 ± 0.15	1.59 ± 0.069
CSFAVTKSSLNDLDYDL [YML103C/NUP188]	3.04 ± 0.1	3.13 ± 0.091	3.01 ± 0.078	3.1 ± 0.055
CSHCGCVYVPNFNASLQ [SNM1]	3.36 ± 0.11	2.42 ± 0.11	3.13 ± 0.16	1.51 ± 0.1
CSRCGSVTRAGNIISSD [SIN4]	–	3.33 ± 0.26	–	3.03 ± 0.22
CTKLAVYYSKRGFKVGL [SRP54]	2.57 ± 0.14	2.73 ± 0.13	2.23 ± 0.099	2.54 ± 0.06
CTNLTNRTLYELADLPK [GRR1]	2.93 ± 0.058	3.05 ± 0.048	2.92 ± 0.036	3.1 ± 0.046
CVDDNSKISFIDEDKLY [SSN2]	3.59 ± 0.25	2.98 ± 0.1	–	2.82 ± 0.29
CVKNHGQSSSIQSSLMT [YCS4]	2.48 ± 0.17	2.67 ± 0.14	2.83 ± 0.052	3.05 ± 0.1
